For test [1], the target named is T1, human TNFR2 on the surface of CHO-TNFR2 cells (human, UniProt P20333 23-461).
T1 construct: whole, on cells
T1 sequence (looked up): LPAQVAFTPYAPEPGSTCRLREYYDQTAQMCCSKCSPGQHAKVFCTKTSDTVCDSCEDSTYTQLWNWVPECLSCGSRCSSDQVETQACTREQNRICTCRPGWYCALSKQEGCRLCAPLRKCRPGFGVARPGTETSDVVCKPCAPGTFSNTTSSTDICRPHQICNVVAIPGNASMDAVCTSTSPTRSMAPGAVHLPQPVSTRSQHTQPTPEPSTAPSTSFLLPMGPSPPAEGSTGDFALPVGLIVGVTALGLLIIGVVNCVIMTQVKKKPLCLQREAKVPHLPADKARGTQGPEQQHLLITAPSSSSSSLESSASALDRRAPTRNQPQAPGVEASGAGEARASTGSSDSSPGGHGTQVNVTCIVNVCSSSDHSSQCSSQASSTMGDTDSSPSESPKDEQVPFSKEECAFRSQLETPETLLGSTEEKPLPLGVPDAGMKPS
The test can be described thus: flow cytometry competition: antibody titrated on CHO-TNFR2 cells, then human TNFα-biotin, detection with PE-streptavidin [panel B]. The procedure: CHO stable cells highly expressing human TNFR2 were used for the experiment (the same as CHO-TNFR2 in Example 4). The CHO-TNFR2 cells were digested, washed twice with DPBS, then stained with Live/Dead (L/D) (20 minutes at room temperature), and plated at a density of 1×10⁵ cells/50 μl/well. A test anti-TNFR2 antibody was diluted to 6 μg/ml with a staining buffer as the starting concentration: the antibody was subjected to 3.33-fold gradient dilution, with a total of 7 concentration points. The diluted antibody was added to the plated cells at 50 μl/well, and the mixture was mixed well by gentle pipetting, and incubated at 4° C. for 30 minutes. Then the diluted 100 ng/ml of human TNFα-biotin was added at 100 μl/well, and the mixture was mixed well by gentle pipetting, and then incubated at 4° C. for 30 minutes. The mixture was washed twice with a staining buffer, and then 0.12 μg/ml PE-streptavidin (BioLegend, Cat #405204) was added at 100 μl/well; the resulting mixture was incubated at 4° C. for 30 minutes. The mixture was washed twice with a staining buffer, and then 150 μl of staining buffer was added to resuspend the cells; signals were detected by a flow cytometer (Thermo Attune NxT). […]

The target in test [2] is T2, Cynomolgus TNFR2-His (Sino 90102-C08H) (cynomolgus monkey, UniProt A0A2K5VET2 132-366).
T2 construct: Bought protein; also called cynomolgus monkey TNFR2; recombinant cynomolgus monkey TNFR2 protein; not shown: His tag
T2 sequence: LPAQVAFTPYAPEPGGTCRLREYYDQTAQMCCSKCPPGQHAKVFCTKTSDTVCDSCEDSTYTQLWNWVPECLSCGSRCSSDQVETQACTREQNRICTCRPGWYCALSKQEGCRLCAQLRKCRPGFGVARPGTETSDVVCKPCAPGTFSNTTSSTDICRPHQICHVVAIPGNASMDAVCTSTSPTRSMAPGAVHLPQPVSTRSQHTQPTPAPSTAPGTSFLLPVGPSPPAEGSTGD
The test can be described thus: ELISA, plate coated with Cynomolgus TNFR2-His, detection with anti-human IgG Fc-HRP [panel A]. On the procedure: The test humanized antibody against TNFR2 (as described in Example 1, the antibody was comprised of variable regions linked to IgG-Fc; the WT chimeric antibody also adopted the IgG-Fc structure) was subjected to 3.33-fold gradient dilution, loaded with 100 μl/well, and incubated with shaking at room temperature for 1.5 hours. The plate was washed, and then a working solution of murine anti-human IgG Fc-HRP (diluted at 1:10000) was added, loaded with 100 μl/well, and incubated with shaking at room temperature for 1.0 hour. The plate was washed again, and then the substrate TMB of HRP was added to develop colour. A stop solution was added to stop the reaction, and then a microplate reader (MD 13) was used to read the absorbance value. The binding curve of an antibody was drawn with antibody concentration as the abscissa and corresponding OD value as the ordinate, and fitted with four parameters (GraphPad Prism9) to calculate the EC50 value. The smaller the EC50 value, the stronger the binding ability of an antibody to human/cynomolgus monkey TNFR2. The binding effect of a humanized antibody was normalized to its corresponding human-murine chimeric antibody WT (see SEQ ID NOs: 38-43 for the sequence). The higher the percentage value, the better the binding effect of the humanized antibody. […]
On the technique in general: In an ELISA, binding on a coated surface is turned into a signal by an enzyme label.

B1: 219-WT (antibody, V domains shown)
VH: EVQLQESGAELVRPGASVKLSCKASGYSFTNYWMNWVKQRPGQGLEWIGMIHPSDTETRLNQNFKDKATLTVDKSSSTSYMQLSSPTSEDSAVYYCARGEGLGAARSVSMDYWGQGTTVTVSS
VL: DILMTQSPSSLSASLGDRVTISCRASQDISNYLNWYQQKPDGTVKVLIYYTAILHSGVPSRFSGSGSGTDYSLTISNLEQEDIATYFCQQGNTLPWTFGGGTKLEIK
notes: Human-murine chimeric wild-type molecule
As for B1, the “IC50 (read off the curve)” value in test [1] was approximately 0.05 µg/mL.

B2: 001-WT (antibody, V domains shown)
VH: EVQLQESGGGLVQPGGSLNLSCAASGFAFSTYDLSWVRQTPEKRLEWVAYINNGGISTYYSDTVKGRFTISRDNAKNTLYLQMSSLKSEDTAMYYCVRGPFYGSANYFDYWGQGTTVTVSS
VL: EIVMTQSPASLSLSVGETVTITCRTSESIYSNLPWYQQKQGKSPQLLVYDATKLAEGVPSRFSGSESGTQYSLKINSLQSEDFGTYYCQHFWVTPWTFGGGTKLEIK
notes: Human-murine chimeric wild-type molecule; also called human-murine chimeric antibody WT of #001
On to B2, for which the “EC50 (read off the curve)” value in test [2] is approximately 0.01 µg/mL.

Broadly, the EC50 (read off the curve) is the concentration that produces a half-maximal response. A high value points to a need for much substance.

Source of the values: US20240109974A1 (SHANDONG SIMCERE BIOPHARMACEUTICAL, published 2024).
